Literature values in patent US20020119948A1, “METHOD FOR EXTENDING THE SATIETY OF FOOD BY ADDING A NUTRITIONAL COMPOSITION DESIGNED TO STIMULATE CHOLECYSTOKININ(CCK)” (PacificHealth Laboratories, Inc., priority 2000, published 2002).

System: Individuals
Conditions: CCK administered by injection

B1: cholecystokinin (peptide, UniProt P06307 21-115, looked up)
Cholecystokinin: QPVPPADPAGSGLQRAEEAPRRQLRVSQRTDGESRAHLGALLARYIQQARKAPSGRMSIVKNLQNLDPSHRISDRDYMGWMDFGRRSAEEYEYPS
modifications: Cholecystokinin
decrease in caloric intake: 16-22%
